Source: the supplement of paper PMC7877785
± gives the uncertainty stated by the source.

Experiment: self-splicing fitness, log relative to wild type (ln ratio); higher = more splicing; Tetrahymena group I intron in knt gene, E. coli kanamycin selection, DiMSum; sequences stand for … in CUCUCU…GGAGGGAAAAGUUAUCAGGCAUGCACCUGGUAGCUAGUCUUUAAACCAAUAGAUUGCAUCGGUUUAAAAGGCAAGACCGUCAAAUUGCGGGAAAGGGGUCAACAGCCGUUCAGUACCAAGUCUCAGGGGAAACUUUGAGAUGGCCUUGCAAAGGGUAUGGUAAUAAGCUGACGGACAUGGUCCUAACCACGCAGCCAAGUCCUAAGUCAACAGAUCUUCUGUUGAUAUGGAUGCAGUUCACAGACUAAAUGUCGGUCGGGGAAGAUGUAUUCUUCUCAUAAGAUAUAGUCGGACCUCUCCUUAAUGGGAGCUAGCGGAUGAAGUGAUGCAACACUGGAGCCGCUGGGAACUAAUUUGUAUGCGAAAGUAUAUUGAUUAGUUUUGGAGUACUCGUGGUCG
Summary of the method: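 Six replicate transformations of E. coli BL21(DE3) with a pET-22b(+) library were grown overnight at 37°C or 30°C. The library randomised all eight P1ex-region intron nucleotides, the intron lying in the knt kanamycin-resistance gene, and plates were LB agar with or without 25 μg/mL kanamycin plus 100 μg/mL carbenicillin, 50 μM IPTG and 0.2% rhamnose. Pooled colonies were amplicon-sequenced on an Illumina HiSeq 2500, and fitness is the DiMSum error-weighted combination of wild-type-normalised replicate fold changes, kanamycin versus none.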

## UUCUAGCAAUAUUACGCACU
30 °C
  self-splicing fitness (ln): -1.79 ± 0.29
37 °C
  self-splicing fitness (ln): -1.69 ± 0.38

## ACCCAGCAAUAUUACGCGGG
30 °C
  self-splicing fitness (ln): -3.6 ± 0.13
37 °C
  self-splicing fitness (ln): -3.08 ± 0.16

## GAUAAGCAAUAUUACGUCGC
30 °C
  self-splicing fitness (ln): -1.76 ± 0.22
37 °C
  self-splicing fitness (ln): -1.17 ± 0.27

## GCGAAGCAAUAUUACGGAAC
30 °C
  self-splicing fitness (ln): -2.72 ± 0.21
37 °C
  self-splicing fitness (ln): -2.28 ± 0.47

## GCCUAGCAAUAUUACGAAUA
30 °C
  self-splicing fitness (ln): -2.12 ± 0.43

## GAAUAGCAAUAUUACGGCCA
30 °C
  self-splicing fitness (ln): -0.596 ± 0.1
37 °C
  self-splicing fitness (ln): -0.0233 ± 0.13

## UCUUAGCAAUAUUACGCGGC
30 °C
  self-splicing fitness (ln): -2.44 ± 0.3
37 °C
  self-splicing fitness (ln): -0.722 ± 0.36

## AAAGAGCAAUAUUACGUCGG
30 °C
  self-splicing fitness (ln): -3.89 ± 0.24
37 °C
  self-splicing fitness (ln): -1.71 ± 0.2

## AGGAAGCAAUAUUACGGGAA
30 °C
  self-splicing fitness (ln): -2.67 ± 0.25
37 °C
  self-splicing fitness (ln): -2.08 ± 0.26

## CAAUAGCAAUAUUACGCAAC
30 °C
  self-splicing fitness (ln): -3.75 ± 0.34
37 °C
  self-splicing fitness (ln): -1.91 ± 0.39

## UCUGAGCAAUAUUACGGAGA
30 °C
  self-splicing fitness (ln): -2.35 ± 0.17
37 °C
  self-splicing fitness (ln): -0.963 ± 0.14

## CUCGAGCAAUAUUACGUGGG
30 °C
  self-splicing fitness (ln): -3.08 ± 0.14
37 °C
  self-splicing fitness (ln): -2.88 ± 0.2

## CUCUAGCAAUAUUACGGUCC
30 °C
  self-splicing fitness (ln): -2.84 ± 0.33
37 °C
  self-splicing fitness (ln): -2.53 ± 0.36

## UCCCAGCAAUAUUACGAUGU
30 °C
  self-splicing fitness (ln): -2.1 ± 0.088
37 °C
  self-splicing fitness (ln): -1.2 ± 0.12

## CAUAAGCAAUAUUACGAUGU
30 °C
  self-splicing fitness (ln): -3.66 ± 0.14
37 °C
  self-splicing fitness (ln): -2.3 ± 0.14

## CCAGAGCAAUAUUACGUUGU
30 °C
  self-splicing fitness (ln): -3.81 ± 0.2
37 °C
  self-splicing fitness (ln): -3 ± 0.26

## UCUCAGCAAUAUUACGCACG
30 °C
  self-splicing fitness (ln): -2.2 ± 0.2
37 °C
  self-splicing fitness (ln): -2.06 ± 0.28

## UUUCAGCAAUAUUACGCUGA
30 °C
  self-splicing fitness (ln): -3.32 ± 0.47
37 °C
  self-splicing fitness (ln): -2.24 ± 0.42

## GUUCAGCAAUAUUACGUCCA
30 °C
  self-splicing fitness (ln): -0.981 ± 0.17
37 °C
  self-splicing fitness (ln): -1.05 ± 0.21

## UGGAAGCAAUAUUACGUGCG
30 °C
  self-splicing fitness (ln): -0.442 ± 0.054
37 °C
  self-splicing fitness (ln): 0.0701 ± 0.075

## AACUAGCAAUAUUACGUGAU
30 °C
  self-splicing fitness (ln): -1.71 ± 0.11
37 °C
  self-splicing fitness (ln): -1.09 ± 0.13

## CAUGAGCAAUAUUACGACUC
30 °C
  self-splicing fitness (ln): -3.85 ± 0.3
37 °C
  self-splicing fitness (ln): -3.38 ± 0.39

## UCGAAGCAAUAUUACGAAUU
30 °C
  self-splicing fitness (ln): -3.1 ± 0.37
37 °C
  self-splicing fitness (ln): -2.21 ± 0.38

## CCUGAGCAAUAUUACGAGGC
30 °C
  self-splicing fitness (ln): -3.18 ± 0.43
37 °C
  self-splicing fitness (ln): -1.54 ± 0.26

## GCGGAGCAAUAUUACGUAAA
30 °C
  self-splicing fitness (ln): -3.53 ± 0.31
37 °C
  self-splicing fitness (ln): -1.97 ± 0.35

## AGUAAGCAAUAUUACGGGUC
30 °C
  self-splicing fitness (ln): -3.31 ± 0.42
37 °C
  self-splicing fitness (ln): -2.92 ± 0.31

## GGUUAGCAAUAUUACGAGAU
37 °C
  self-splicing fitness (ln): -1.66 ± 0.33

## ACCCAGCAAUAUUACGAACG
30 °C
  self-splicing fitness (ln): -3.06 ± 0.14
37 °C
  self-splicing fitness (ln): -1.4 ± 0.14

## CCAGAGCAAUAUUACGAAUG
30 °C
  self-splicing fitness (ln): -1.73 ± 0.097
37 °C
  self-splicing fitness (ln): -0.868 ± 0.12

## CGCAAGCAAUAUUACGGCGA
30 °C
  self-splicing fitness (ln): -1.91 ± 0.24
37 °C
  self-splicing fitness (ln): -0.653 ± 0.17

## UAGCAGCAAUAUUACGCAAC
30 °C
  self-splicing fitness (ln): -2.32 ± 0.16
37 °C
  self-splicing fitness (ln): -2.24 ± 0.22

## CUAAAGCAAUAUUACGCAUU
30 °C
  self-splicing fitness (ln): -4.21 ± 0.21
37 °C
  self-splicing fitness (ln): -1.51 ± 0.14

## CGUCAGCAAUAUUACGUUAC
30 °C
  self-splicing fitness (ln): -2.78 ± 0.21
37 °C
  self-splicing fitness (ln): -3.22 ± 0.24

## CCCUAGCAAUAUUACGAUGC
30 °C
  self-splicing fitness (ln): -3.12 ± 0.2
37 °C
  self-splicing fitness (ln): -2.22 ± 0.31

## CCCCAGCAAUAUUACGCUCG
30 °C
  self-splicing fitness (ln): -3.14 ± 0.17
37 °C
  self-splicing fitness (ln): -2.1 ± 0.19

## GCGCAGCAAUAUUACGCAAC
30 °C
  self-splicing fitness (ln): -1.79 ± 0.14
37 °C
  self-splicing fitness (ln): -0.576 ± 0.18

## AUCCAGCAAUAUUACGUUCU
30 °C
  self-splicing fitness (ln): -1.64 ± 0.096
37 °C
  self-splicing fitness (ln): -1.39 ± 0.13
